Data reported in the supplement of paper PMC9112550, “Optimization of the antimicrobial peptide Bac7 by deep mutational scanning” (BMC Biology, 2022).

System: Escherichia coli TOP10
Assay: shrunken log2 fold change of peptide-encoding DNA abundance (4.5 h post-induction vs induction); higher = less antimicrobial activity (less host growth inhibition)
Settings: time post-induction: 4.5 h; library: site-saturation at positions 5, 18, 19, 20
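Further: peptides expressed intracellularly from a pBAD plasmid library in pooled LB shake-flask culture, induced with 0.3% L-arabinose, DNA abundance read by NGS, three biological replicates, DESeq2 with apeglm shrinkage.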

Sequence	shrunken log2 fold change
RRIRPRPPRLPRPRPRPKDIPRP	-0.801
RRIRTRPPRLPRPRPRPWQNPRP	-0.0181
RRIRIRPPRLPRPRPRPFPPPRP	-0.353
RRIRPRPPRLPRPRPRPKMGPRP	-0.0348
RRIRQRPPRLPRPRPRPSGWPRP	-0.112
RRIRIRPPRLPRPRPRPCIRPRP	-0.0379
RRIRGRPPRLPRPRPRPVCFPRP	0.997
RRIRQRPPRLPRPRPRPTVTPRP	-0.47
RRIRNRPPRLPRPRPRPGYSPRP	-0.42
RRIRYRPPRLPRPRPRPDGSPRP	-0.317
RRIRERPPRLPRPRPRPYDIPRP	-0.136
RRIRWRPPRLPRPRPRPMTVPRP	-0.0472
RRIRNRPPRLPRPRPRPNNSPRP	-0.376
RRIRFRPPRLPRPRPRPSQRPRP	0.384
RRIRPRPPRLPRPRPRPACEPRP	0.0148
RRIRPRPPRLPRPRPRPNGGPRP	-0.305
RRIRQRPPRLPRPRPRPASFPRP	0.0572
RRIRHRPPRLPRPRPRPIQRPRP	-0.204
RRIRYRPPRLPRPRPRPPAPPRP	0.76
RRIRQRPPRLPRPRPRPFCCPRP	-0.114
RRIRYRPPRLPRPRPRPLSRPRP	-0.155
RRIRDRPPRLPRPRPRPDKKPRP	0.0252
RRIRQRPPRLPRPRPRPQVWPRP	-0.0346
RRIRDRPPRLPRPRPRPNHVPRP	-0.242
RRIRDRPPRLPRPRPRPDYYPRP	0.00235

Sequence	shrunken log2 fold change
RRIRKRPPRLPRPRPRPKDPPRP	0.367
RRIRGRPPRLPRPRPRPMSGPRP	0.0585
RRIRVRPPRLPRPRPRPLRCPRP	0.0372
RRIRNRPPRLPRPRPRPDPKPRP	-0.00647
RRIRIRPPRLPRPRPRPMGLPRP	-0.0686
RRIRKRPPRLPRPRPRPSFYPRP	-0.391
RRIRVRPPRLPRPRPRPYLFPRP	0.0655
RRIRGRPPRLPRPRPRPNFRPRP	-0.00192
RRIRGRPPRLPRPRPRPDSMPRP	0.245
RRIRDRPPRLPRPRPRPYIVPRP	0.0363
RRIRHRPPRLPRPRPRPELDPRP	0.6
RRIRFRPPRLPRPRPRPKMIPRP	-0.618
RRIRMRPPRLPRPRPRPQAGPRP	0.214
RRIRYRPPRLPRPRPRPGNWPRP	-0.163
RRIRYRPPRLPRPRPRPVLRPRP	0.124
RRIRYRPPRLPRPRPRPKMDPRP	0.0399
RRIRERPPRLPRPRPRPVVGPRP	-0.106
RRIRFRPPRLPRPRPRPTEVPRP	-0.0247
RRIRCRPPRLPRPRPRPAEHPRP	0.0782
RRIRYRPPRLPRPRPRPQDNPRP	-0.024
RRIRDRPPRLPRPRPRPNRLPRP	0.0873
RRIRLRPPRLPRPRPRPIKAPRP	-0.0378
RRIRQRPPRLPRPRPRPVVGPRP	0.101
RRIRRRPPRLPRPRPRPLIEPRP	0.35
RRIRTRPPRLPRPRPRPCELPRP	-0.271

Sequence	shrunken log2 fold change
RRIRWRPPRLPRPRPRPLPAPRP	1.25
RRIRNRPPRLPRPRPRPPEFPRP	-0.144
RRIRKRPPRLPRPRPRPRGIPRP	0.0697
RRIRWRPPRLPRPRPRPHWWPRP	0.629
RRIRPRPPRLPRPRPRPTNEPRP	0.0205
RRIRMRPPRLPRPRPRPHTVPRP	-0.0708
RRIRDRPPRLPRPRPRPLKLPRP	0.0229
RRIRDRPPRLPRPRPRPDPMPRP	0.0611
RRIRKRPPRLPRPRPRPYDKPRP	-0.124
RRIRNRPPRLPRPRPRPYMVPRP	-0.107
RRIRRRPPRLPRPRPRPHSVPRP	0.0319
RRIRIRPPRLPRPRPRPYVFPRP	-0.0874
RRIRERPPRLPRPRPRPLGHPRP	0.187
RRIRIRPPRLPRPRPRPKLNPRP	0.0573
RRIRWRPPRLPRPRPRPTIVPRP	-0.33
RRIRLRPPRLPRPRPRPWYCPRP	-0.766
RRIRCRPPRLPRPRPRPNGNPRP	-0.288
RRIRGRPPRLPRPRPRPSVKPRP	0.293
RRIRARPPRLPRPRPRPKFAPRP	0.306
RRIRMRPPRLPRPRPRPPKCPRP	0.0414
RRIRHRPPRLPRPRPRPQLSPRP	-0.000101
RRIRRRPPRLPRPRPRPFSVPRP	0.0458
RRIRARPPRLPRPRPRPIWQPRP	0.166
RRIRWRPPRLPRPRPRPTVFPRP	0.255
RRIRLRPPRLPRPRPRPNCDPRP	-0.00298

Sequence	shrunken log2 fold change
RRIRYRPPRLPRPRPRPWYNPRP	-0.764
RRIRWRPPRLPRPRPRPFFEPRP	-0.0187
RRIRCRPPRLPRPRPRPGANPRP	0.385
RRIRARPPRLPRPRPRPVMYPRP	0.0749
RRIRDRPPRLPRPRPRPKPIPRP	0.106
RRIRTRPPRLPRPRPRPMGNPRP	-0.0115
RRIRRRPPRLPRPRPRPQWAPRP	0.0248
RRIRVRPPRLPRPRPRPYNHPRP	-0.343
RRIRIRPPRLPRPRPRPCNAPRP	-0.0751
RRIRYRPPRLPRPRPRPICSPRP	0.0329
RRIRHRPPRLPRPRPRPWYTPRP	-0.17
RRIRFRPPRLPRPRPRPRYPPRP	-0.38
RRIRCRPPRLPRPRPRPCPAPRP	-0.178
RRIRDRPPRLPRPRPRPFEVPRP	-0.0211
RRIRFRPPRLPRPRPRPGTKPRP	0.478
RRIRPRPPRLPRPRPRPASVPRP	0.185
RRIRNRPPRLPRPRPRPKCFPRP	-0.192
RRIRPRPPRLPRPRPRPQPGPRP	0.204
RRIRKRPPRLPRPRPRPNEDPRP	-0.00122
RRIRRRPPRLPRPRPRPFHNPRP	0.00548
RRIRYRPPRLPRPRPRPCNCPRP	-0.0018
RRIRTRPPRLPRPRPRPWNDPRP	-0.271
RRIRCRPPRLPRPRPRPRSWPRP	0.417
RRIRSRPPRLPRPRPRPDQQPRP	0.0193
RRIRWRPPRLPRPRPRPEDYPRP	-0.00903

Sequence	shrunken log2 fold change
RRIRIRPPRLPRPRPRPWSCPRP	0.0678
RRIRGRPPRLPRPRPRPEQGPRP	0.374
RRIRARPPRLPRPRPRPFCPPRP	0.11
RRIRHRPPRLPRPRPRPHNWPRP	-0.214
RRIRPRPPRLPRPRPRPMMQPRP	-0.369
RRIRVRPPRLPRPRPRPIFCPRP	0.078
RRIRHRPPRLPRPRPRPMNWPRP	-0.209
RRIRERPPRLPRPRPRPPWPPRP	0.408
RRIRARPPRLPRPRPRPLCAPRP	0.704
RRIRNRPPRLPRPRPRPKINPRP	-0.387
RRIRSRPPRLPRPRPRPTHWPRP	0.451
RRIRGRPPRLPRPRPRPWRDPRP	0.0475
RRIRWRPPRLPRPRPRPWKDPRP	-0.000687
RRIRHRPPRLPRPRPRPCMWPRP	-0.193
RRIRKRPPRLPRPRPRPCMCPRP	-0.0956
RRIRYRPPRLPRPRPRPCSTPRP	-0.212
RRIRVRPPRLPRPRPRPMVIPRP	0.0224
RRIRCRPPRLPRPRPRPEMHPRP	0.304
RRIRRRPPRLPRPRPRPIVIPRP	-0.125
RRIRTRPPRLPRPRPRPWLVPRP	-0.0639
RRIRNRPPRLPRPRPRPEPAPRP	0.88
RRIRMRPPRLPRPRPRPSNCPRP	-0.376
RRIRHRPPRLPRPRPRPMPIPRP	0.113
RRIRFRPPRLPRPRPRPLIGPRP	-0.106
RRIRERPPRLPRPRPRPDSPPRP	-0.184
